Five molecules from patent US20240384250A1, “FIBROBLAST GROWTH FACTOR 23 MODULATING COMPOUNDS” (THE UAB RESEARCH FOUNDATION, priority 2021, published 2024) can be followed below.

“Also recorded” adds a separate entry of the source.

This assay deals with FGF23 and FGFR1c. The assay can be described thus: sKL detection assay (FGF23 coated, Fc-FGFR1c detection). In kind it is binding. The note with it: for binding in the sKL detection assay, total cell lysates: lysates of stably transfected HEK293T cells; for binding in the sKL detection assay: commercial preparations compared with the sKL protein. The method, then: Commercially available ELISA plates (Maxisorp) are coated with 5 μg/ml of recombinant FGF23 protein (R&D Systems) and unspecific binding sites are blocked with BSA/Tween20. Wells are incubated with sKL in solution (which can be plasma, serum or cell culture supernatants) for one hour, washed and incubated for one hour with 750 ng/ml of recombinant FGFR1α(IIIc)-Fc (R&D Systems), which is a chimeric protein consisting of the FGFR1 ectodomain and the Fc region of a human IgG. FGFR1 only binds to FGF23 in the presence of sKL, and the formation of this trimeric sandwich complex is then measured by detecting the presence of the Fc domain that is coupled to FGFR1. To do so, wells are washed and incubated with 400 ng/ml of anti-human IgG conjugated to horseradish peroxidase (HRP; Promega). Wells are washed and incubated with HRP substrate. After development for about 30 minutes, reactions are analyzed on a standard plate reader via absorptions at […]. Incubations with recombinant sKL dissolved in PBS at defined concentrations serve as standards that are used as reference values to determine sKL concentrations in the studied human samples. […]
HEK293 cells were plated in 10 cm dishes supplemented with 10% FBS (26140079, Gibco) and I× Pen/Strep (15140122, Gibco). Cells were transfected with appropriate klotho or green fluorescent protein cDNA constructs. After 2 days, clones were selected by using 1 μg/ml of puromycin (A1113803, Gibco). Cells were then split and plated in 10 cm dishes in DMEM supplemented with FBS and puromycin. After 48 hours, cells were lysed in 1 ml of RIPA buffer with the addition of a protease inhibitor (11873580001, Roche) for 30 minutes. The mixture was then centrifuged at 20,000 g for 1 hour to remove all cell debris. Activity assay was run as above in the sKL halflife study. Instead of serum, 20 μl of the indicated cell lysate was used and combined with 80 μl of activity assay buffer.

B1: BKL: full-length β-klotho in total lysates of stably transfected HEK293T cells (protein)
chain: MKTGCAAGSPGNEWIFFSSDERNTRSRKTMSNRALQRSAVLSAFVLLRAVTGFSGDGKAIWDKKQYVSPVNPSQLFLYDTFPKNFSWGVGTGAFQVEGSWKTDGRGPSIWDRYVYSHLRGVNGTDRSTDSYIFLEKDLLALDFLGVSFYQFSISWPRLFPNGTVAAVNAQGLRYYRALLDSLVLRNIEPIVTLYHWDLPLTLQEEYGGWKNATMIDLFNDYATYCFQTFGDRVKYWITIHNPYLVAWHGFGTGMHAPGEKGNLTAVYTVGHNLIKAHSKVWHNYDKNFRPHQKGWLSITLGSHWIEPNRTDNMEDVINCQHSMSSVLGWFANPIHGDGDYPEFMKTGAMIPEFSEAEKEEVRGTADFFAFSFGPNNFRPSNTVVKMGQNVSLNLRQVLNWIKLEYDDPQILISENGWFTDSYIKTEDTTAIYMMKNFLNQVLQAIKFDEIRVFGYTAWTLLDGFEWQDAYTTRRGLFYVDFNSEQKERKPKSSAHYYKQIIQDNGFPLKESTPDMKGRFPCDFSWGVTESVLKPEFTVSSPQFTDPHLYVWNVTGNRLLYRVEGVRLKTRPSQCTDYVSIKKRVEMLAKMKVTHYQFALDWTSILPTGNLSKVNRQVLRYYRCVVSEGLKLGVFPMVTLYHPTHSHLGLPLPLLSSGGWLNMNTAKAFQDYAELCFRELGDLVKLWITINEPNRLSDMYNRTSNDTYRAAHNLMIAHAQVWHLYDRQYRPVQHGAVSLSLHCDWAEPANPFVDSHWKAAERFLQFEIAWFADPLFKTGDYPSVMKEYIASKNQRGLSSSVLPRFTAKESRLVKGTVDFYALNHFTTRFVIHKQLNTNRSVADRDVQFLQDITRLSSPSRLAVTPWGVRKLLAWIRRNYRDRDIYITANGIDDLALEDDQIRKYYLEKYVQEALKAYLIDKVKIKGYYAFKLTEEKSKPRFGFFTSDFRAKSSVQFYSKLISSSGLPAENRSPACGQPAEDTDCTICSFLVEKKPLIFFGCCFISTLAVLLSITVFHHQKRRKFQKARNLQNIPLKKGHSRVFS
modifications: left off: small tags and cut ends
notes: full-length β-klotho in total lysates of stably transfected HEK293T cells
Take B1: the “binding in the sKL detection assay, total cell lysates” value (from here on “binding … total cell lysates”) is on record as “no measurable binding activity”.

B2: Com.sKL: commercial preparation, mouse sKL from R&D Systems (1819KL050), aa 35-982 (protein)
chain: AEPGQGAQTWARFARAPAPEAAGLLHDTFPDGFLWAVGSAAYQTEGGWRQHGKGASIWDTFTHHSGAAPSDSPIVVAPSGAPSPPLSSTGDVASDSYNNVYRDTEGLRELGVTHYRFSISWARVLPNGTAGTPNREGLRYYRRLLERLRELGVQPVVTLYHWDLPQRLQDTYGGWANRALADHFRDYAELCFRHFGGQVKYWITIDNPYVVAWHGYATGRLAPGVRGSSRLGYLVAHNLLLAHAKVWHLYNTSFRPTQGGRVSIALSSHWINPRRMTDYNIRECQKSLDFVLGWFAKPIFIDGDYPESMKNNLSSLLPDFTESEKRLIRGTADFFALSFGPTLSFQLLDPNMKFRQLESPNLRQLLSWIDLEYNHPPIFIVENGWFVSGTTKRDDAKYMYYLKKFIMETLKAIRLDGVDVIGYTAWSLMDGFEWHRGYSIRRGLFYVDFLSQDKELLPKSSALFYQKLIEDNGFPPLPENQPLEGTFPCDFAWGVVDNYVQVDTTLSQFTDPNVYLWDVHHSKRLIKVDGVVAKKRKPYCVDFSAIRPQITLLREMRVTHFRFSLDWALILPLGNQTQVNHTVLHFYRCMISELVHANITPVVALWQPAAPHQGLPHALAKHGAWENPHTALAFADYANLCFKELGHWVNLWITMNEPNTRNMTYRAGHHLLRAHALAWHLYDDKFRAAQKGKISIALQADWIEPACPFSQNDKEVAERVLEFDIGWLAEPIFGSGDYPRVMRDWLNQKNNFLLPYFTEDEKKLVRGSFDFLAVSHYTTILVDWEKEDPMKYNDYLEVQEMTDITWLNSPSQVAVVPWGLRKVLNWLRFKYGDLPMYVTANGIDDDPHAEQDSLRIYYIKNYVNEALKAYVLDDINLCGYFAYSLSDRSAPKSGFYRYAANQFEPKPSMKHYRKIIDSNGFLGSGTLGRFCPEEYTVCTECGFFQTRK
Turning to B2, the “binding in the sKL detection assay” value is reported as “significantly reduced binding”.

B3: sBKL: soluble β-klotho in total lysates of stably transfected HEK293T cells (protein)
chain: MKTGCAAGSPGNEWIFFSSDERNTRSRKTMSNRALQRSAVLSAFVLLRAVTGFSGDGKAIWDKKQYVSPVNPSQLFLYDTFPKNFSWGVGTGAFQVEGSWKTDGRGPSIWDRYVYSHLRGVNGTDRSTDSYIFLEKDLLALDFLGVSFYQFSISWPRLFPNGTVAAVNAQGLRYYRALLDSLVLRNIEPIVTLYHWDLPLTLQEEYGGWKNATMIDLFNDYATYCFQTFGDRVKYWITIHNPYLVAWHGFGTGMHAPGEKGNLTAVYTVGHNLIKAHSKVWHNYDKNFRPHQKGWLSITLGSHWIEPNRTDNMEDVINCQHSMSSVLGWFANPIHGDGDYPEFMKTGAMIPEFSEAEKEEVRGTADFFAFSFGPNNFRPSNTVVKMGQNVSLNLRQVLNWIKLEYDDPQILISENGWFTDSYIKTEDTTAIYMMKNFLNQVLQAIKFDEIRVFGYTAWTLLDGFEWQDAYTTRRGLFYVDFNSEQKERKPKSSAHYYKQIIQDNGFPLKESTPDMKGRFPCDFSWGVTESVLKPEFTVSSPQFTDPHLYVWNVTGNRLLYRVEGVRLKTRPSQCTDYVSIKKRVEMLAKMKVTHYQFALDWTSILPTGNLSKVNRQVLRYYRCVVSEGLKLGVFPMVTLYHPTHSHLGLPLPLLSSGGWLNMNTAKAFQDYAELCFRELGDLVKLWITINEPNRLSDMYNRTSNDTYRAAHNLMIAHAQVWHLYDRQYRPVQHGAVSLSLHCDWAEPANPFVDSHWKAAERFLQFEIAWFADPLFKTGDYPSVMKEYIASKNQRGLSSSVLPRFTAKESRLVKGTVDFYALNHFTTRFVIHKQLNTNRSVADRDVQFLQDITRLSSPSRLAVTPWGVRKLLAWIRRNYRDRDIYITANGIDDLALEDDQIRKYYLEKYVQEALKAYLIDKVKIKGYYAFKLTEEKSKPRFGFFTSDFRAKSSVQFYSKLISSSGLPAENRSPACGQPAEDTDCTICSFLVEKKP
modifications: left off: small tags and cut ends
notes: soluble β-klotho in total lysates of stably transfected HEK293T cells
As to B3, the “binding … total cell lysates” value is “no measurable binding activity”.

B4: KL1: human klotho domain 1 (KL1) from PeproTech, aa 34-549 (protein)
chain: EPGDGAQTWARFSRPPAPEAAGLFQGTFPDGFLWAVGSAAYQTEGGWQQHGKGASIWDTFTHHPLAPPGDSRNASLPLGAPSPLQPATGDVASDSYNNVFRDTEALRELGVTHYRFSISWARVLPNGSAGVPNREGLRYYRRLLERLRELGVQPVVTLYHWDLPQRLQDAYGGWANRALADHFRDYAELCFRHFGGQVKYWITIDNPYVVAWHGYATGRLAPGIRGSPRLGYLVAHNLLLAHAKVWHLYNTSFRPTQGGQVSIALSSHWINPRRMTDHSIKECQKSLDFVLGWFAKPVFIDGDYPESMKNNLSSILPDFTESEKKFIKGTADFFALCFGPTLSFQLLDPHMKFRQLESPNLRQLLSWIDLEFNHPQIFIVENGWFVSGTTKRDDAKYMYYLKKFIMETLKAIKLDGVDVIGYTAWSLMDGFEWHRGYSIRRGLFYVDFLSQDKMLLPKSSALFYQKLIEKNGFPPLPENQPLEGTFPCDFAWGVVDNYIQVDTTLSQFTDLNVYLW
For the molecule B4, the “binding in the sKL detection assay” value was “cannot mediate FGF23-FGFR1c binding; also recorded: did not show any bioactivity; also recorded: no binding”.

B5: KL: full-length klotho in total lysates of stably transfected HEK293T cells (protein, UniProt Q9UEF7 1-1012, looked up)
chain: MPASAPPRRPRPPPPSLSLLLVLLGLGGRRLRAEPGDGAQTWARFSRPPAPEAAGLFQGTFPDGFLWAVGSAAYQTEGGWQQHGKGASIWDTFTHHPLAPPGDSRNASLPLGAPSPLQPATGDVASDSYNNVFRDTEALRELGVTHYRFSISWARVLPNGSAGVPNREGLRYYRRLLERLRELGVQPVVTLYHWDLPQRLQDAYGGWANRALADHFRDYAELCFRHFGGQVKYWITIDNPYVVAWHGYATGRLAPGIRGSPRLGYLVAHNLLLAHAKVWHLYNTSFRPTQGGQVSIALSSHWINPRRMTDHSIKECQKSLDFVLGWFAKPVFIDGDYPESMKNNLSSILPDFTESEKKFIKGTADFFALCFGPTLSFQLLDPHMKFRQLESPNLRQLLSWIDLEFNHPQIFIVENGWFVSGTTKRDDAKYMYYLKKFIMETLKAIKLDGVDVIGYTAWSLMDGFEWHRGYSIRRGLFYVDFLSQDKMLLPKSSALFYQKLIEKNGFPPLPENQPLEGTFPCDFAWGVVDNYIQVDTTLSQFTDLNVYLWDVHHSKRLIKVDGVVTKKRKSYCVDFAAIQPQIALLQEMHVTHFRFSLDWALILPLGNQSQVNHTILQYYRCMASELVRVNITPVVALWQPMAPNQGLPRLLARQGAWENPYTALAFAEYARLCFQELGHHVKLWITMNEPYTRNMTYSAGHNLLKAHALAWHVYNEKFRHAQNGKISIALQADWIEPACPFSQKDKEVAERVLEFDIGWLAEPIFGSGDYPWVMRDWLNQRNNFLLPYFTEDEKKLIQGTFDFLALSHYTTILVDSEKEDPIKYNDYLEVQEMTDITWLNSPSQVAVVPWGLRKVLNWLKFKYGDLPMYIISNGIDDGLHAEDDQLRVYYMQNYINEALKAHILDGINLCGYFAYSFNDRTAPRFGLYRYAADQFEPKASMKHYRKIIDSNGFPGPETLERFCPEEFTVCTECSFFHTRKSLLAFIAFLFFASIISLSLIFYYSKKGRRSYK
modifications: full-length
notes: full-length klotho in total lysates of stably transfected HEK293T cells
With B5, the “binding … total cell lysates” value is on record as “much weaker binding”. Also, the “binding … total cell lysates” value (listed as full-length klotho) is recorded as “negative”.
